This assay deals with angiotensin-converting enzyme 2 (ACE2) protein, purified (UniProt Q9BYF1). In words: AFM single-molecule force spectroscopy (FD-curve-based AFM).

In turn, “SARS-CoV-2 spike glycoprotein receptor-binding domain (from UniProt P0DTC2 319-541) (domain or fragment)” returned a Kd of 120 nM, a bond lifetime τ of 111 ms and an interaction time of 0.25 ms.
